# Laboratory results reported in publication PMC10580935.
# Assays:
# Experiment in all cases: EMSA
# Settings in all cases: 20 mM Tris-HCl pH 8.0, 1 mM DTT, 50 mM KCl, 5 mM MgCl2, 0.05 mg/mL BSA, 10% glycerol
# [1] = target: T1, IdeR (Mycobacterium bovis BCG) (UniProt P9WMH1)
# T1 sequence: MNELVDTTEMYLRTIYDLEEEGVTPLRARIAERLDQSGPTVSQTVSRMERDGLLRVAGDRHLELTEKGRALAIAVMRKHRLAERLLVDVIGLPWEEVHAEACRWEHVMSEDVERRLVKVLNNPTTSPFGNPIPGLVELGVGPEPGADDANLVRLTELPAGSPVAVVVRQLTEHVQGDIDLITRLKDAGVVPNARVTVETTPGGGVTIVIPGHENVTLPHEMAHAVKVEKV
# [2] = target: T2, IdeR;Zur (Mycobacterium bovis BCG;Mycobacterium bovis BCG) (UniProt P9WMH1+P9WN85)
# T2 sequence 1: T1 sequence
# T2 sequence 2: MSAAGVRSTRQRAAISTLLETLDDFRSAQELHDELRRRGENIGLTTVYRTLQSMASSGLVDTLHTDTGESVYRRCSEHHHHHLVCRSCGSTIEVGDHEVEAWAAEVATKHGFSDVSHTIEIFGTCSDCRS
# [3] = target: T3, Zur (Mycobacterium bovis BCG) (UniProt P9WN85)
# T3 sequence: T2 sequence 2
sequence,measurement,setting,value
ACGTCAGCGTCTACCTTGCCATTTACCCGAGACGCGACGGGGGAAGCGGCCACCATGCCAATGTCATCACGCTCCACGCCTCCGCTGTCTCCTTCACCTACGCCCGCCATCGGCCGATCCGCCTGAACTTTGCCCCGAAGTTAGCATTGCATAAGCTAACTGTCGAGGCGACCGCGACCAATCGACTCGGCCCTGCGGCCAAGCTTTTAGGCACGGCTGGCAAGATCATGACCGATACTCCATTTCGTTGGTAGCCCGATATGCAGAGTGTAG (double strand) [esx-3p2],binding,[1],binds
same,binding,[2],binds
same,binding,[3],no binding
